# Laboratory results published in article PMC2704382 (Cell, 2009).
# Target: GSK3β used in the surface plasmon resonance binding assays (UniProt P49841 1-420)
# Assay: SPR
# Sequence of GSK3β used in the surface plasmon resonance binding assays (P49841 whole entry): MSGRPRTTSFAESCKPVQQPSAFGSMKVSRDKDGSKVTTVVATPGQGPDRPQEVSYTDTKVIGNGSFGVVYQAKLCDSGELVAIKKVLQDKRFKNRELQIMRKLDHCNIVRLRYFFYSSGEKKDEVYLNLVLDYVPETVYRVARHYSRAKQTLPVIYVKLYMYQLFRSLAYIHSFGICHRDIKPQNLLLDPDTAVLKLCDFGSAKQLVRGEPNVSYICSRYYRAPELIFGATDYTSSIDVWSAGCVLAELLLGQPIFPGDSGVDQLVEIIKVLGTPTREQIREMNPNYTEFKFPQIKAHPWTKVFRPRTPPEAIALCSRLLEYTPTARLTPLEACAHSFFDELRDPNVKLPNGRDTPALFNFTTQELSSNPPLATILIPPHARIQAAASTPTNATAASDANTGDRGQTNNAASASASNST
row,stoichiometry N,Binder
1,2 peptide:protein,"SFSFIQLSLGAAGER (peptide, UniProt Q811T9 211-225, looked up) [DISCtide2 (15-mer peptide, mDISC1 amino acids 211 to 225)]"
2,2 peptide:protein,"PADIASLPGFQDTFTSSFSFIQLSLGAAGERGEAEGCLPSREAE (peptide, UniProt Q811T9 195-238, looked up) [DISCtide-1 (mDISC1 amino acids 195 to 238)]"
